How the values were obtained:
[1] = tested on: NLGN3 mRNA in SU-DIPGXIII cells; assay: qPCR of NLGN3 gene expression in DIPG cells; assay type: cell-based, human; conditions: 50 nM recombinant NLGN3, 12 hour vs vehicle
Method: A) Signaling through the PI3K pathway increases in response to NLGN3. Representative Western blot illustrating increased phosphorylation of AKT in response to various concentrations of NLGN3 ranging from 0-50 nM. p-AKT is shown in top panel; total AKT is shown in the bottom panel. B) Quantification of the increased fold change of pAKT/AKT ratio in response to NLGN3 at various doses (oneway ANOVA, F=17.99, P<001; data shown as mean±SEM; *P<0.05, **P<0.01, ***P<0.001 by Tukey's post-hoc tests to further examine pairwise comparisons). Fold change is normalized to blank media (aCSF). (C) Fos mRNA expression increases after 1 hour exposure to […] 50 nM NLGN3 (data shown as mean±SEM; **P<0.01 by unpaired two-tailed Student's t-test). D) NLGN3 mRNA expression increases after 12 hour exposure to 50 nM NLGN3 vs. vehicle in SU-[…] cells. […]
After various cell treatments (described in extended experimental procedures), RNA was extracted from 500,000 SU-pcGBM2 or SU-[…] cells using TRIzol reagent. cDNA was generated using RT-PCR, and gene expression changes were further probed using quantitative PCR.
500,000 SU-pcGBM2 cells were exposed to either aCSF, 50 nM NLGN3 (Origene Technologies, Rockville), 500 nM BKM120 (SelleckChem, Houston, Tex.), 50 nM EGF (Shenandoah, Warwick, R.I.), or a combination of the above treatments. […] Differential expression was determined using the delta CT method. […]

[2] = tested on: HGG patient-derived cell lines (pediatric cortical glioblastoma, DIPG, adult glioblastoma); assay: EdU proliferation index of various HGG patient-derived cell lines exposed to NLGN3; assay type: cell-based, human; conditions: 50 nM NLGN3 for 24 hours
Method: A) Recombinant NLGN3 promotes pediatric high-grade glioma cell proliferation in a dose-dependent manner, plateauing at a low nanomolar concentration. 7-point dose curve plots proliferation index as measured by EdU^+/DAPI^+ staining at 24 hours following exposure of SU-pcGBM2 cells to NLGN3 at concentrations ranging from 0-100 nM. Shaded region indicates concentration present in active CM. B) Proliferation indices of various HGG patient-derived cell lines exposed to 50 nM NLGN3 for 24 hours. Data are shown as mean±SEM. ***P<0.001 by unpaired two-tailed Student's t-tests. C) Neurexin-1β, which binds to NLGN3 with high affinity, abrogates the mitogenic effect of active slice CM. […]
NLGN3 promotes proliferation in a broad range of HGG cultures. […] After 24-hour exposure, all cell lines were evaluated with the EdU assay to determine proliferation index (unpaired two-tailed Student's t-tests).
To assess the number of cells actively synthesizing new DNA in response to various conditions (see extended experimental procedures), SU-pcGBM2, SU-DIPGIV, SU-DIPGXIII, or SU-GBM035 cells were exposed to active CM or various recombinant proteins along with 10-μM EdU and fixed after 24 hours. EdU incorporation was determined using Click-iT EdU visualization (Invitrogen, Grand Island, N.Y.). […]

B1: NLGN3: Recombinant full-length neuroligin-3 (Origene), tested as glioma mitogen (protein, listed as Mus musculus)
chain: MWLQPSLSLSPTPTVGRSLCLTLGFLSLVLRASTQAPAPTVNTHFGKLRGARVPLPSEILGPVDQYLGVPYAAPPIGEKRFLPPEPPPSWSGIRNATHFPPVCPQNIHTAVPEVMLPVWFTANLDIVATYIQEPNEDCLYLNVYVPTEDGSGAKKQGEDLADNDGDEDEDIRDSGAKPVMVYIHGGSYMEGTGNMIDGSVLASYGNVIVITLNYRVGVLGFLSTGDQAAKGNYGLLDQIQALRWVSENIAFFGGDPRRITVFGSGIGASCVSLLTLSHHSEGLFQRAIIQSGSALSSWAVNYQPVKYTSLLADKVGCNVLDTVDMVDCLRQKSAKELVEQDIQPARYHVAFGPVIDGDVIPDDPEILMEQGEFLNYDIMLGVNQGEGLKFVEGVVDPEDGVSGTDFDYSVSNFVDNLYGYPEGKDTLRETIKFMYTDWADRDNPETRRKTLVALFTDHQWVEPSVVTADLHARYGSPTYFYAFYHHCQSLMKPAWSDAAHGDEVPYVFGVPMVGPTDLFPCNFSKNDVMLSAVVMTYWTNFAKTGDPNKPVPQDTKFIHTKANRFEEVAWSKYNPRDQLYLHIGLKPRVRDHYRATKVAFWKHLVPHLYNLHDMFHYTSTTTKVPPPDTTHSSHITRRPNGKTWSTKRPAISPAYSNENAPGSWNGDQDAGPLLVENPRDYSTELSVTIAVGASLLFLNVLAFAALYYRKDKRRQEPLRQPSPQRGTGAPELGTAPEEELAALQLGPTHHECEAGPPHDTLRLTALPDYTLTLRRSPDDIPLMTPNTITMIPNSLVGLQTLHPYNTFAAGFNSTGLPHSHSTTRV
NLGN3 gene expression [1]: increase in glioma cell NLGN3 gene expression | effect on proliferation index [2]: promoted a significant increase in the proliferation index

From patent US10377818B2, “Method of treating glioma” (The Board of Trustees of the Leland Stanford Junior …, priority 2015, dated 2019)
